Source: the supplement of paper PMC12667976

B1: library; numbered along this chain (parent)
chain: MATDAALRRLLRLHRTEIAVAVDSAFPLLHALADHDVVPEDKFQETLHLKEKEGCPQAFHALLSWLLTQDSTAILDFWRVLFKDYNLERYGRLQPILDSFPKDVDLSQPRKGRKPPAVPKALVPPPRLPTKRKASEEARAAAPAALTPRGTASPGSQLKAKPPKKPESSAEQQRLPLGNGIQTMSASVQRAVAMSSGDVPGARGAVEGILIQQVFESGGSKKCIQVGGEFYTPSKFEDSGSGKNKARSSSGPKPLVRAKGAQGAAPGGGEARLGQQGSVPAPLALPSDPQLHQKNEDECAVCRDGGELICCDGCPRAFHLACLSPPLREIPSGTWRCSSCLQATVQEVQPRAEEPRPQEPPVETPLPPGLRSAGEEVRGPPGEPLAGMDTTLVYKHLPAPPSAAPLPGLDSSALHPLLCVGPEGQQNLAPGARCGVCGDGTDVLRCTHCAAAFHWRCHFPAGTSRPGTGLRCRSCSGDVTPAPVEGVLAPSPARLAPGPAKDDTASHEPALHRDDLESLLSEHTFDGILQWAIQSMARPAAPFPS

Variants of: B1
Test: AIRE transcriptional activation functional score (insulin promoter-GFP; nonsense median 0, synonymous median 1) (normalised score); higher = higher AIRE activity (more reporter activation)
Conditions: with insulin promoter-GFP reporter in HEK293
Procedure, shortened: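 The functional score compares variant enrichment between select and non-select populations after subtracting wild type. To obtain it, codon-optimized AIRE NNN-codon libraries spanning three regions were placed by Bxb1 recombinase into Flp-In T-REx HEK293 landing-pad cells with an insulin core promoter-GFP reporter. Cells with the top 10% GFP and unselected integrants were tile-sequenced after mCherry+, BFP− integrants had been sorted at day 7 and grown 7 more days. Only variants with 10 counts per million in non-select were kept, rescaled to nonsense median 0 and synonymous median 1, and averaged across biological replicates.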

AIRE transcriptional activation functional score of substitutions, site by site:
P405: L 0.801, R 0.984, T 1.16, V 1.21, F 1.03, H 1.04, N 1.22, C 1.59, S 1.05, K 1, G 0.341, I 1.59, E 0.742, Y 1.17, Q 0.685
P398: W 1.64, C 0.359, V 1.31, Y 1.69, M 0.82, Q 1.31, E 0.984, H 1.24, S 0.979, A 1.09, T 1.21, K 1.04, L 1.5, N 0.615, I 1.23, F 1.43, D 0.585, G 1.14, R 0.958
L397: N 0.167, I 0.407, S 0.938, F 0.99, M 0.0442, T 0.852, H 0.0686, G 0.775, Q 1.36, P 0.66, K 0.921, Y 0.779, V 0.641, R 0.938, W 0.989
S412: G 1.03, N 0.717, Y 1.5, W 1.72, Q 0.66, I 0.868, F 1.37, P 0.711, T 1.02, H 1.26, R 1.07, D 0.652, C 0.988, V 1.13, K 0.899, E 0.743, A 1.09, M 1.3, L 1.15
D410: S 1.27, V 0.998, H 1.17, A 1.09, I 1.19, F 1.06, L 1.08, C 1.12, K 0.35, R 0.412, Y 1.27, M 0.501, P 0.93, Q 1.2, N 1.12, G 0.967, E 1.11, W 0.337, T 1.41
H415: E 1.32, G 0.474, I 0.632, D 0.797, A 1.08, K 0.65, F 1.67, L 1.22, C 0.616
L414: G 0.546, A 1.49, R 0.749, D 1.03, N 1.07, P 0.785, C 0.792, W 0.979, H 0.857, Y -0.109, F 1.41, S 0.625, I 1.45, K 0.634, V 1.1, T 1.14, E 1.08
G408: K 1.14, F 1.28, I 0.636, Q 1.29, T 0.879, A 0.914, N 0.674, E 1.05, H 1.31, P 0.97, D 1.2, C 1.01, R 0.906, L 0.00278, V 0.743, W 1.34, Y 1.08, S 1.03
A399: F 1.64, K 0.799, I 0.768, G 0.994, T 0.845, Q 0.327, C 1.18, L -0.706, N 0.798, V 0.911, E 0.88, M 1.22, H 1.63, S 0.793, P 1.38, Y -0.0769, W 1.2, R 0.779
L409: D 1.21, A 0.384, K 0.881, F 0.907, N 0.459, R 0.789, Y 0.962, H 0.62, M 1.03, E 0.899, Q 0.636, I 1.16, G 0.891, P 1.25, V 0.903, C 0.887, S 1.23, T 1.02
